Experimental findings from the supplement of paper PMC12636428 are described below.

In the data set the test system is Saccharomyces cerevisiae. Put plainly: transcriptional activation domain activity (GFP:mCherry ratio, weighted mean of sorted bins, harmonized to initial dataset scale) (arbitrary fluorescence ratio units); higher = stronger transcriptional activation. Particulars: beta-estradiol 1 µM; induction time 4 h. In a few lines:
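The activation activity of each tile is the read-weighted mean of bin median fluorescence, averaged across its barcodes and mapped linearly onto the scale of the initial dataset. Tiles were fused to an estradiol-inducible synthetic transcription factor, barcoded, and integrated at URA3 in yeast diploids carrying a GFP reporter. Induction used 1 uM beta-estradiol in SC for 4 hours at 30 °C, after which cells were sorted into 8 GFP:mCherry bins, and any tile with fewer than 50 reads was dropped.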

Take “KLKEKNKKRKRGEEVSDDEEEGPKDDEPKEKKAKKEEEHGVWVGNLAFATSQD”: the “transcriptional activation domain activity” value came to 36700.
Next, “KLKSLVAIVWILDFVHLILICQAIYHYLITNWGTTQRFCSPPRFSICTLCLSL”: 55200.
Under “KLLCVGRPFRASSTEVVVTMALLSMLRHLPTTRWKDSLKLLAWVLEQYIYRFT” stands 51000.
Turning to “KLLLVHGRWSYQRIADMHANFFYKNVIWTFGLFWYMPFNGFDATYLYHYTFIL”, the “transcriptional activation domain activity” value came to 58100.
Under “KLLNYLQMDRAKVVSFTIFVFVWSYFRHYLNLVILWSVWTQYDLIPQFARRWV” stands 40000.
Under “KLLRWYIYPCAYRLGTVCCLFLSEIYNERHRKLSYAVMEPDTWPIMFTDKLAR” stands 74900; under “KLRGYGFVCQMLQLPIVVLQRTKWVRGRETLNNVCFWASMILGLSLVRCLFPL”, 50200.
As for “KLRHRLEDEKEANFFRAIIHFTGLRLPQARSKPVNVVRGILLVLCQLVQFSGR”, the “transcriptional activation domain activity” value was 57100.
Next, “KLRKKQHGSNKDTIPSSQSRDIANDYDRGSTDNNLVTTTSTSSIFHDEDLTFF”: 44400.
Under “KLSFRLLVLSSSEILVCFPVYPSFVGYDPIFSGFRVKLLIFLLSLWHLLLLFV” stands 42300; under “KLTLADLAPSPMAYRLWMFISGLYSLVDPFVRPLVRTYFAACLRLLIRWVPGI”, 59400; under “KLWAKRRAIYGNVFGFPGGVAWAMLVARICQLYPNAVSATIVGKFFNILTKWN”, 33200.
Turning to “KLWAKRRAIYSNVMGFLGGVAWAMLTARVCQLYPNACAASIVNRFFRIMYQWN”, the “transcriptional activation domain activity” value stood at 49800.
Regarding “KLWKKPIIVVMAAMPIIMDGVGNLLIPYLHSFVLHSLLFCHKKVAFLMLLLIF”, the “transcriptional activation domain activity” value is 59100.
Under “KLYQLKLKIFLYWQRYSYLYAKRKHSTKHHTLLVWSLKVKKLYGILWCFLLLF” stands 36600; under “KLYSLGHILHSFIFVFSFFHFLISFLHSGFLCPRLFMFSSSLLFYYFLVGFFF”, 27700; under “KLYYLAFYSGNILRRDLNLIIGVGKNWNLPAFWAPLLRYVTCPILAIIYSMAY”, 63600.
Next, “KMEESKKRGTKRKSALASDSEEEEEVKPKPIAKPAKPAAKAESSVHVRKGVVL”: 17700; “KMLLDHIKKFVITYTGGLVLACDISRYHEVIVQFKSVQVDEYFNVLKEICSLF”: 53900; “KMSTNANNYTGAGNLHAAKPATSPTNVGTLHENLSSSHFMIPDVDQFNSFEDF”: 30300.
Under “KMVHRPLLWYFTVFLVDMYTALRLFRLGFRHYAPRTQTRSWFRVFPPRPFTWV” stands 71700; under “KNASFNDADLLSSSYWIKAYNDHLFSVSESDETSPMNSELNDTKLIVPDFKST”, 69100; under “KNDCCFCYALGLFIRMDCFLRIFVCLCFDVGLYAIEFDLCSLLLACIHVHFSH”, 36300.
Take “KNDDRGDRGERRSRSRRRRHSVTGVDRESRAESKHRDPKHRKHRIAEAGAASA”: the “transcriptional activation domain activity” value came to 41500.
Under “KNEKADKAEKTEKTEQQQSSGARRNRRGRGGNRGGEGGKESKEGGRPAAAAKT” stands 11200.
For “KNGWHIIGSSNNVVAYRLRVYQCMDLTTFFSLQAAFSDCERYFVASAIVLDKK”, the “transcriptional activation domain activity” value amounted to 38500.
Next, “KNNDATIDNELTQILNEYNMNFNDNLGTSTSGKNKSACPSSFDANAMTKINPS”: 51800.
Regarding “KNNLWYLPLYLFYLSRVTPAATVVPVFLFFFIFFYFFIFIFYLFLFYLSFSIF”, the “transcriptional activation domain activity” value amounted to 49900.
Next, “KNNNREVEVEAREPHHKGRKNNKREVGEVEARDPHHKGRKNNKREVEVEAREP”: 52900.
Take “KPAGIMMFYFPCLYGTFLVGCLGHEINILSMAIANAKLFLLSFLMRGMLCTWN”: the “transcriptional activation domain activity” value was 43200.
Next, “KPATTTASSAQPSTTASATPGGLFGGGAQSGSSTPAGGLFGAKPAAAPSPAPA”: 44900.
Under “KPDLYLDILKIIAYSLDDVKFRACQVLFHYYFVSLGHVVVAEALPKLGVTVEI” stands 36400; under “KPEPAGEKAEVANGEGAPEGNRRRPSGRGRGRGRGGRGARGGRDAKEEGAEEA”, 51900; under “KPEPAGEKGEGAASGGEGQSGGEGGRRRPSGRGRGRGRGRGGRGGRANRGSRG”, 38800.
Regarding “KPESKEKEEEEEETETETETETKPEAKEEPKEEPKEEVNNEKEAEDAAAAEAK”, the “transcriptional activation domain activity” value was found to be 27200.
Under “KPHGKQAAESTRGQSTTGTNSTTSNSSRASGSRRQETDRGKEGKSNKASSSSG” stands 21900.
Next, “KPHHKWIIPTPFASHAFHPVDGYLQSVPYHLFIFLFPMHQYVYLGLFVAVNFW”: 72400; “KPHHKWIVPTPFASHAFHPVDGYFQSLPYHIFIFVFPMQRHLYLALFVAVNCW”: 41800; “KPHHKWIVPTPFSSHAFHPVDGYAQSVPYHLFVFIFPMQRHLYLFLFVAVNFW”: 44100.
Next, “KPKAAAKAAKPAKKAAPEKAEKPEKPEKAKEVEKPEKPEKVSKPAAKKAAPVA”: 25000; “KPKPKPKQYPKVILPSNSTRRVSPVTAKTSSSAEGVVVASESPVIAPHGSSHS”: 47200.
Regarding “KPKRKERSDKGKKRGPRAKDGTGTKAAENTLVAKAKPAAKGQEKRRGKADDAK”, the “transcriptional activation domain activity” value is 16700.
Under “KPKVKKDADDDAMDVDEEEKPKPKPKPRPKPKATSSPKEGEEDEPAKKKLKTS” stands 51400.
Next, “KPLGRQELQRFVALLHSHLETQILEYMHTRRKLSDVVLFLRRTLATCLLLYGC”: 38100; “KPLSIILGLVNVFVLYNYLSTGVSLWMISLRFSSFSCRFLADVFSCLLVFLLC”: 60600; “KPLSKRAAPKKAPAKRKSSAGSKSKETSAEPPKKRPAKAKAKPKKEATPASSP”: 41900.
Under “KPPCVWCRAVGTAASMLSNLLANGLLAFQCHMGWSIVYIAALLCIIYATTLSL” stands 38300; under “KPTNQTEFDWQVFQQQAFLQQQLAQHNLQAYLSSLNTDTMTNRSPSKSSSIST”, 66300.
As to “KQAAEEGDRPKQGGKESGEKENGKAEGSQAREKDRPADGEGKSSDEAGKAKDE”, the “transcriptional activation domain activity” value was found to be 12500.
With “KQGQEVEFKPERGVGDLVLKVTGRKRGYRAEERRSNSLRAQLVISHAVPLAVT”, the “transcriptional activation domain activity” value came to 60200.
On to “KQLAKKTESFSGSDLKHLCVSAALDAVKERVTVPWRHSTTSAPSSSAPAEAQP”, for which the “transcriptional activation domain activity” value amounted to 19000.
Under “KQPEPRTRSASPKRAASPAKPVAAEKPAAVAAAAEKPAEKVAEKAAEKPAPAV” stands 31400; under “KQPKKKAAAKKAQAPKKGKKRAADDDEEEEGEEDVKPKARGKGKGKAATGKGR”, 42300; under “KQRKAELIHHVVPLAVAAAFSIFLSGEDLEGPRIYHSMASLKVLRRLVAVISS”, 54400.
Under “KQSWSYFYKVLQGLLMDLFFIITIPIYFYYYLPNWNPPLWTLLDFTTLESLNF” stands 69000.
Next, “KQTAAQDSDEEGGGGKLKSKKEKEKEKKEREKQRKKEQAAKKKTAAPAPAKPE”: 24400; “KQTRAGQRTRFRAVVIVGDSNGHVGLGVKTSKEVATAIRAAIVIAKLNVIPVR”: 64200.
As for “KQYCVRPNSGRIDPGKEVEVQVLLQAMKEDPPLDAKCRDKFLVQSVAVSADKE”, the “transcriptional activation domain activity” value came to 64500.
Next, “KQYCVRPNSGRIEAGKDVEVQVLLQAMKEDPPQGYKCRDKFLVQSVAITADRE”: 21700.
Under “KQYCVRPNSGRIEAGKEVEVQVLLQAMKEDPPADAKCRDKFLVQSVAISADKE” stands 17800; under “KQYCVRPNSGRIEAGKEVEVQVLLQAMKEDPPPDARCRDKFLVQSVAVTADQE”, 37200; under “KQYCVRPNSGRIEGGGEVEVQVLLQAMKEDPPLDAKCKDKFLVQSVAVAADRE”, 46900.
Under “KQYCVRPNSGRIEPGGEVDVQILLQAMKEDPPADAKCRDKFLVQSVLVTADKE” stands 50100.
With “KQYCVRPNSGRIEPGKDVEVQILLQAMKEDPPLDAKCRDKFLVQSVAVSADKE”, the “transcriptional activation domain activity” value came out at 40700.
On to “KQYCVRPNSGRIEPGKDVEVQILLQAMKEDPPMDAKCRDKFLVQSVAVTADKE”, for which the “transcriptional activation domain activity” value stood at 59200.
On to “KQYCVRPNSGRIEPGKDVEVQILLQAMKEDPPPDAKCRDKFLVQSVAVSADKE”, for which the “transcriptional activation domain activity” value was found to be 47000.
Under “KQYCVRPNSGRIEPGKDVEVQVLLQAMKEDPAPDAKCRDKFLVQSVAVTADKE” stands 44600; under “KQYCVRPNSGRIEPGKDVEVQVLLQAMKEDPPLDAKCRDKFLVQSVAVTADKE”, 24900; under “KQYCVRPNSGRIEPGKEVDVQVLLQAMKEDPPLDAKCRDKFLVQSVAVTADKE”, 27100.
Next, “KQYCVRPNSGRIEPGKEVEVQVILQAMKQEPPPDTKCRDKFLVQAVAIAADKE”: 29700.
As to “KQYCVRPNSGRIEPGKEVEVQVLLQAMREDPPPDARCRDKFLVQSVAMTGENE”, the “transcriptional activation domain activity” value worked out at 29400.
Under “KQYCVRPNSGRIEPGKEVEVTVLLQAMKQEPPIDAKCRDKFLVQSVAVTADKE” stands 51300.
In the case of “KQYCVRPNSGRIEPGKSVEVTVLLQAMKAEPPMDAKCRDKFLVQSVAVTADKE”, the “transcriptional activation domain activity” value was 33600.
Under “KQYCVRPNSGRIEPGKSVEVTVLLQAMKQEPPMDAKCRDKFLVQSVAVTADKE” stands 31600.
